Measured values from US20140087995A1 (published 2014).
Numbered stars: 1 amine (or outer) side, 2 acyl side, 3 side chain; on linkers, the order of the positions; unused ones are H or OH. Bridge positions count the residues as written; N and C are the ends. Side chains are listed from the residue outwards. Ends that are not written are not given here. * marks the point of attachment. C20 diacid = O=C(O)CCCCCCCCCCCCCCCCCCC(=O)*; γGlu = O=C(O)[C@H](CCC(=O)[*:2])N[*:1]; AEEA = NCCOCCOCC(=O)O

T1: rat calcitonin receptor (rat, UniProt P32214 25-516)
T1 construct: whole, on cells; Cell membranes of transiently transfected BHK tk'ts 13 cells (Assay VIII); also called rCTR; rCT
T1 sequence (looked up): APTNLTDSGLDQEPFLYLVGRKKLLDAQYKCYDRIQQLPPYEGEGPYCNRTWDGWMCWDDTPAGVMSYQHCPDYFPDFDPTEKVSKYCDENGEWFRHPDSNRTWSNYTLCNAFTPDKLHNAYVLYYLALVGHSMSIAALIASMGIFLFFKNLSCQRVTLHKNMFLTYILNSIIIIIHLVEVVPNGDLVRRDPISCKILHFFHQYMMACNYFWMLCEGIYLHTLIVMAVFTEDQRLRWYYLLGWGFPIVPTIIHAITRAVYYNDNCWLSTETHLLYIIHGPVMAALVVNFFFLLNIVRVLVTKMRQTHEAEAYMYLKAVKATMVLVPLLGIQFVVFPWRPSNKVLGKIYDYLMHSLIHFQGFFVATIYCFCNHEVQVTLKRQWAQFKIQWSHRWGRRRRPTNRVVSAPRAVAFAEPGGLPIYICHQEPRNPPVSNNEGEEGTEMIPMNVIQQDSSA

T2: rat amylin receptor (rat calcitonin receptor + rat RAMP 3) (rat, UniProt P32214 25-516; Q9JJ73 23-147)
T2 construct: whole, on cells; Cell membranes of transiently transfected BHK tk'ts 13 cells (Assay VI); also called rAmylin-R; rat amylin 3(a) receptor
T2 sequence (looked up) 1: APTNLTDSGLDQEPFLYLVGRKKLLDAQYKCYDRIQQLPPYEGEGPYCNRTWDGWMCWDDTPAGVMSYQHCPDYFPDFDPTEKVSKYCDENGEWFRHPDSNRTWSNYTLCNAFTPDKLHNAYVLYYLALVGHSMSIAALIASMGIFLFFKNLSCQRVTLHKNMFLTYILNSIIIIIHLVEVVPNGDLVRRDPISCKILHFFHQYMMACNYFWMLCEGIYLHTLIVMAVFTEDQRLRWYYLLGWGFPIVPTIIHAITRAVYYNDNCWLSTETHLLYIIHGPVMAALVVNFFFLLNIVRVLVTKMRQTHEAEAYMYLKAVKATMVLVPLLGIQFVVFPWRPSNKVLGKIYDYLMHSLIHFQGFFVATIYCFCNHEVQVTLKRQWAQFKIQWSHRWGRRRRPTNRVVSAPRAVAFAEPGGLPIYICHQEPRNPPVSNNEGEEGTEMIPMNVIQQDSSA
T2 sequence (looked up) 2: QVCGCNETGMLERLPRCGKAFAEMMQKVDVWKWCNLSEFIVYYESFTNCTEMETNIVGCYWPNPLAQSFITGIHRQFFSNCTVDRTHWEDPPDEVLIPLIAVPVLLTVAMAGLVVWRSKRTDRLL

T3: human calcitonin receptor (human, UniProt P30988 25-474)
T3 sequence (looked up): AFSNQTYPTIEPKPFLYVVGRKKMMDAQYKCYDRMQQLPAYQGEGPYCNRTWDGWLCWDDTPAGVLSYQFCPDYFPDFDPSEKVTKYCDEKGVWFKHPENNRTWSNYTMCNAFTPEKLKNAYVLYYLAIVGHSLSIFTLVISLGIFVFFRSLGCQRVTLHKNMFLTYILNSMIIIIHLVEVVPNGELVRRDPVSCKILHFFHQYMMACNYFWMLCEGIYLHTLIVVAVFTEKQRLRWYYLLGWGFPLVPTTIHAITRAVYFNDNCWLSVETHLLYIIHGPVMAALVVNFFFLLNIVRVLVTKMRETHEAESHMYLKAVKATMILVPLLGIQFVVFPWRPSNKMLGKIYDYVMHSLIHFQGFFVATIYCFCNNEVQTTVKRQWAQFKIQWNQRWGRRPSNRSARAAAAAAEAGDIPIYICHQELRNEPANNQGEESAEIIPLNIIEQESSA

T4: human amylin receptor (amylin 3(a) receptor: human calcitonin receptor coexpressed with RAMP-3) (human, UniProt P30988 25-474; O60896 24-148)
T4 sequence (looked up) 1: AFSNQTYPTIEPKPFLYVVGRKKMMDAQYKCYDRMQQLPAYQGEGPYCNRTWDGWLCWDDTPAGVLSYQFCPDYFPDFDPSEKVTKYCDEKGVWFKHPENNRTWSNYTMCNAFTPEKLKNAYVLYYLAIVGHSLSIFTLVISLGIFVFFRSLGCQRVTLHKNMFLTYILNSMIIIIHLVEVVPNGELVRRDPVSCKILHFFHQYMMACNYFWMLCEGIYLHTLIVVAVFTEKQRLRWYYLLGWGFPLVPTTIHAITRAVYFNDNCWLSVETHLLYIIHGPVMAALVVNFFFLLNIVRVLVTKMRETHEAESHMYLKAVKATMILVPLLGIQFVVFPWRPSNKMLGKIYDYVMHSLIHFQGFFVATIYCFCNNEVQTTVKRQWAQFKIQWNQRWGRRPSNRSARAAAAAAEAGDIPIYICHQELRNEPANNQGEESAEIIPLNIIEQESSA
T4 sequence (looked up) 2: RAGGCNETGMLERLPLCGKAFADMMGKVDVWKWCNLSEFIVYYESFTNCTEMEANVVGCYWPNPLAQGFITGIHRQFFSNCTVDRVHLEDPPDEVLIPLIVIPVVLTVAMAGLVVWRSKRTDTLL


Legend:
rat calcitonin receptor = biological target: T1, rat calcitonin receptor; assay: SPA competition vs 125I-calcitonin, membranes with rat CTR (Assay VIII)
[1] = biological target: T2, rat amylin receptor (rat calcitonin …); assay: SPA competition vs 125I-rat amylin, membranes with rat CTR + rat RAMP3 (Assay VI)
[2] = biological target: T3, human calcitonin receptor; assay: cell-based or functional assay
[3] = biological target: T4, human amylin receptor (amylin 3(a) …); assay: cell-based or functional assay

IC50 (rat calcitonin receptor) [nM] | IC50 [1] [nM] | hCTR funct. EC50 (pM) [2] [pM] | hAmylin-R funct. EC50 (pM) [3] [pM] | Ratio hCT/hAmylin funct. [2] | Binder
159 | 0.335 |  |  |  | K([γGlu-γGlu-C20 diacid])CNTATCATQRLADFLRHSSPNFGAIPSSTNVGSRTY-NH2 (disulfide 2-7; N-terminus assumed; SMILES CC[C@H](C)[C@H](NC(=O)[C@H](C)NC(=O)CNC(=O)[C@H](Cc1ccccc1)NC(=O)[C@H](CC(N)=O)NC(=O)[C@@H]1CCCN1C(=O)[C@H](CO)NC(=O)[C@H](CO)NC(=O)[C@H](Cc1c[nH]cn1)NC(=O)[C@H](CCCNC(=N)N)NC(=O)[C@H](CC(C)C)NC(=O)[C@H](Cc1ccccc1)NC(=O)[C@H](CC(=O)O)NC(=O)[C@H](C)NC(=O)[C@H](CC(C)C)NC(=O)[C@H](CCCNC(=N)N)NC(=O)[C@H](CCC(N)=O)NC(=O)[C@@H](NC(=O)[C@H](C)NC(=O)[C@@H]1CSSC[C@H](NC(=O)[C@@H](N)CCCCNC(=O)CC[C@H](NC(=O)CC[C@H](NC(=O)CCCCCCCCCCCCCCCCCCC(=O)O)C(=O)O)C(=O)O)C(=O)N[C@@H](CC(N)=O)C(=O)N[C@@H]([C@@H](C)O)C(=O)N[C@@H](C)C(=O)N[C@@H]([C@@H](C)O)C(=O)N1)[C@@H](C)O)C(=O)N1CCC[C@H]1C(=O)N[C@@H](CO)C(=O)N[C@@H](CO)C(=O)N[C@H](C(=O)N[C@@H](CC(N)=O)C(=O)N[C@H](C(=O)NCC(=O)N[C@@H](CO)C(=O)N[C@@H](CCCNC(=N)N)C(=O)N[C@H](C(=O)N[C@@H](Cc1ccc(O)cc1)C(N)=O)[C@@H](C)O)C(C)C)[C@@H](C)O, Acylated analogue of human amylin; also called compound 52)
 |  | 7370 | 297 |  | K([AEEA-γGlu-C20 diacid])CNTATCATQRLANFLRHSSPNFGAIPSSTNVGHNTY-NH2 (disulfide 2-7; N-terminus assumed; SMILES CC[C@H](C)[C@H](NC(=O)[C@H](C)NC(=O)CNC(=O)[C@H](Cc1ccccc1)NC(=O)[C@H](CC(N)=O)NC(=O)[C@@H]1CCCN1C(=O)[C@H](CO)NC(=O)[C@H](CO)NC(=O)[C@H](Cc1c[nH]cn1)NC(=O)[C@H](CCCNC(=N)N)NC(=O)[C@H](CC(C)C)NC(=O)[C@H](Cc1ccccc1)NC(=O)[C@H](CC(N)=O)NC(=O)[C@H](C)NC(=O)[C@H](CC(C)C)NC(=O)[C@H](CCCNC(=N)N)NC(=O)[C@H](CCC(N)=O)NC(=O)[C@@H](NC(=O)[C@H](C)NC(=O)[C@@H]1CSSC[C@H](NC(=O)[C@@H](N)CCCCNC(=O)COCCOCCNC(=O)CC[C@H](NC(=O)CCCCCCCCCCCCCCCCCCC(=O)O)C(=O)O)C(=O)N[C@@H](CC(N)=O)C(=O)N[C@@H]([C@@H](C)O)C(=O)N[C@@H](C)C(=O)N[C@@H]([C@@H](C)O)C(=O)N1)[C@@H](C)O)C(=O)N1CCC[C@H]1C(=O)N[C@@H](CO)C(=O)N[C@@H](CO)C(=O)N[C@H](C(=O)N[C@@H](CC(N)=O)C(=O)N[C@H](C(=O)NCC(=O)N[C@@H](Cc1c[nH]cn1)C(=O)N[C@@H](CC(N)=O)C(=O)N[C@H](C(=O)N[C@@H](Cc1ccc(O)cc1)C(N)=O)[C@@H](C)O)C(C)C)[C@@H](C)O, also called compound 76)
 |  | 21500 | 651 | 33 | K([AEEA-AEEA-γGlu-C20 diacid])CNTATCATQRLANFLRHSSPNFGAIPSSTNVGRNTY-NH2 (disulfide 2-7; N-terminus assumed; SMILES CC[C@H](C)[C@H](NC(=O)[C@H](C)NC(=O)CNC(=O)[C@H](Cc1ccccc1)NC(=O)[C@H](CC(N)=O)NC(=O)[C@@H]1CCCN1C(=O)[C@H](CO)NC(=O)[C@H](CO)NC(=O)[C@H](Cc1c[nH]cn1)NC(=O)[C@H](CCCNC(=N)N)NC(=O)[C@H](CC(C)C)NC(=O)[C@H](Cc1ccccc1)NC(=O)[C@H](CC(N)=O)NC(=O)[C@H](C)NC(=O)[C@H](CC(C)C)NC(=O)[C@H](CCCNC(=N)N)NC(=O)[C@H](CCC(N)=O)NC(=O)[C@@H](NC(=O)[C@H](C)NC(=O)[C@@H]1CSSC[C@H](NC(=O)[C@@H](N)CCCCNC(=O)COCCOCCNC(=O)COCCOCCNC(=O)CC[C@H](NC(=O)CCCCCCCCCCCCCCCCCCC(=O)O)C(=O)O)C(=O)N[C@@H](CC(N)=O)C(=O)N[C@@H]([C@@H](C)O)C(=O)N[C@@H](C)C(=O)N[C@@H]([C@@H](C)O)C(=O)N1)[C@@H](C)O)C(=O)N1CCC[C@H]1C(=O)N[C@@H](CO)C(=O)N[C@@H](CO)C(=O)N[C@H](C(=O)N[C@@H](CC(N)=O)C(=O)N[C@H](C(=O)NCC(=O)N[C@@H](CCCNC(=N)N)C(=O)N[C@@H](CC(N)=O)C(=O)N[C@H](C(=O)N[C@@H](Cc1ccc(O)cc1)C(N)=O)[C@@H](C)O)C(C)C)[C@@H](C)O, also called compound 95)
